Reference: the DeepSol protein solubility set

assay: soluble on expression in E. coli; label from the status in PepcDB or PDB records

Sequence | soluble on expression in E. coli
MTSEHRSASVTPRHISFFNIPGHGHVNPSLGIVQELVARGHRVSYAITDEFAAQVKAAGATPVVYDSILPKESNPEESWPEDQESAMGLFLDEAVRVLPQLEDAYADDRPDLIVYDIASWPAPVLGRKWDIPFVQLSPTFVAYEGFEEDVPAVQDPTADRGEEAAAPAGTGDAEEGAEAEDGLVRFFTRLSAFLEEHGVDTPATEFLIAPNRCIVALPRTFQIKGDTVGDNYTFVGPTYGDRSHQGTWEGPGDGRPVLLIALGSAFTDHLDFYRTCLSAVDGLDWHVVLSVGRFVDPADLGEVPPNVEVHQWVPQLDILTKASAFITHAGMGSTMEALSNAVPMVAVPQIAEQTMNAERIVELGLGRHIPRDQVTAEKLREAVLAVASDPGVAERLAAVRQEIREAGGARAAADILEGILAEAG | soluble
MAEKFKIIMTEALSLYIWGCNILNTEKLETLLGFYKQYKALSEYIDKKYKLSLNDLAVLDLTMKHCKDEKVLMQSFLKTAMDELDLSRTKLLVSIRRLIEKERLSKVRSSKDERKIYIYLNNDDISKFNALFEDVEQFLNI | not soluble
MRDTIPVTILSGSLGAGKTTLLNHLLTEAGDRDIAVLVNDMGTVNVDAELIAEGSELDVDDGVAELSNGCICCELQDDLETAVVRLADDRDFDALVVESSGISEPAPVARLFTTESRVAALYRVDTLVTVLDTRLFLDSFAGETPERRGSGEASADGDGDDTEADGADRPLSDLMVEQVELSNLVVLNKTDLCTDEEMDEAEELVRALQPDAETIRTTFSQVDPDRLFDRALFDQTEISDLPGWKRALAESGHGHGEGSHDHGGDSHETDAHEGDTGHGHDDHHHPEEVYGVTSFTYRRRRPFHPDRLAEVLQDLPSGVVRSKGTVWLAGSERRVVIGQAGPSIRAEAQGPWIASLPEVEQDMYRSNRPELDWHDEHGDRRTELVFIGTDYDESALRTALDDALVTDEEWTESESLTGPFPAEQGEEAVIRSP | not soluble
MDRPVRVLFVCLGNICRSPMAEGIFRKLLKERGLEDRFEVDSAGTGAWHVGEPMDPRARRVLEEEGAYFPHVARRLTREDVLAYDHILVMDRENLEEVLRRFPEARGKVRLVLEELGGGEVQDPYYGDLEDFRKVYWTLEAALQAFLDRHGSPSPAAEGRA | soluble
MTVERLENGVIVQRNTNEIEISITLDTVHGKLEGSTGVNFFDHLLNTFCHYSGLGLRVSTCESKDGILHHLIEDFGISLGLAFRELFDYTKVRRFGEATVPMNEALVGCYVDLSGRPFFQKNFEFSVEKIEDMPVEGFEEFMCGFVNHARITVHFFKFFGKNDHHISESAMKSFGLAIAKALESSEKKTTKGVID | soluble
MSSDSDSDFGKEASKTPKRRITDCLFDSDDEVLESPGREELRKLLLSDYEDVGSVTIDTPKLKNRNVRLRGAGRPQKGGDDYKDYGRSEMEQFLRLVSDKPFLWHTKDSDFHRKKEKGMPAWAEIERTCNTFMGKGRTPGKTAAALFKKMATTYKSHLTRIQKAPSGSAVTPKKDLFCYAELMSFMDEDITHRAPTCSFIVGAGPDVDVLPTETSSSKKK | not soluble
MTFAGIDVSKTHLDLALVSNSPKPTRLRFPNSPEGRQALLAALAHHNPAWVALEPTSAYHLPLLKLLAENRLQVALVNPYHLAAFRKAKGERQKTDRQDALLLARYAQVYHEDLRAYTLPPETLRELKALVGYREDLAGRERTILNQMEAAEWAGSKEVLALLQKELACVKGLLGEVEARIQALLATLPEAEVLMALPGVGPQVAAAVLALLPPELWGRAKRAASYAGLIPEREESGKSVERSRLSKKGPPLLRRKLYMGALVAVRHDPEMRAFYHRLLSRGKRKKQALVAVAHKLLRRMMGRLREYYATQLDQGVA | soluble
MAKSRTIYVCAECGGTSLKWQGKCPHCSAWNTLEETVESAAPSAGGHRYAPLAAASPVRSLSEIEARETPRQPTGLDEFDRVLGGGLVAGAVVLIGGDPGIGKSTLLLQALASLSATTKVLYVTGEESAEQVALRARRLGLQTGNVDLLAEIRLEAIQAAVSEQKPTVAVIDSIQTLYSGELTAAPGSVSQVRECAAQLTRLAKQTGIAIVMIGHVTKDGALAGPRVLEHIVDTVLYFEGDTHSSFRLVRAFKNRFGAVNELGVFAMTDRGLRGVANPSALFLSQHQQQVAGSCVLATQEGTRPLLVEVQALVDTSHAPNPRRLTVGLEGNRLAMLLAVMHRHAGVSTYDQDVFVNAVGGVRITEPAADLPVLLAIMSSLRDKPLPAGLVAFGEIGLAGEIRPAPRGQERLREAAKLGFSVALIPKANAPRQPIEGLEIWAVDRLDAALDKLRLEHHHHHH | soluble
MSMENFAQLLEESFTLQEMNPGEVITAEVVAIDQNFVTVNAGLKSESLIDVAEFKNAQGEIEVKVGDFVTVTIESVENGFGETKLSREKAKRAADWIALEEAMENGNILSGIINGKVKGGLTVMISSIRAFLPGSLVDVRPVKDTSHFEGKEIEFKVIKLDKKRNNVVVSRRAVLEATLGEERKALLENLQEGSVIKGIVKNITDYGAFVDLGGIDGLLHITDLAWRRVKHPSEVLEVGQEVEAKVLKFDQEKQRVSLGMKQLGEDPWSGLTRRYPQATRLFGKVSNLTDYGAFVEIEQGIEGLVHVSEMDWTNKNVHPSKVVQLGDEVEVMILEIDEGRRRISLGMKQCQANPWEEFAANHNKGDKISGAVKSITDFGVFVGLPGGIDGLVHLSDLSWTESGEEAVRKYKKGEEVEAVVLAIDVEKERISLGIKQLEGDPFGNFISVNDKGSLVKGSVKSVDAKGAVIALSDEVEGYLPASEFAADRVEDLTTKLKEGDEVEAVIVTVDRKNRSIKLSVKAKDAKESREALNSVNAAANANAGTTSLGDLLKAKLSGEQELEHHHHHH | not soluble
MGKSELSGRLNWQALAGLKASGAEQNLYNVFNAVFEGTKYVLYEKPKHLKNLYAQVVLPDDVIKEIFNPLIDLSTTQWGVSPAFAIENTETHKILFGEIKRQDGWVEGKDPSAGRGNAHERSCKLFTPGLLKAYRTIGGINDEEILPFWVVFEGDITRDPKRVREITFWYDHYQDNYFMWRPNESGEKLVQHFNEKLKKYLD | soluble
MASFCNSWKRKHNEAIKLSEEIDGMILERSSLAETSSYARGHASYMRRKITILANGVQTLKNLLAESQGKSISAKEMSRCKDMVEDLRSKAYQMASALDMLKFSNIGSLLGQDDIMSRVIDMDNQEIVGFQRTTMKGKLKGVMHLKREALAMNMELGLQTRLIDRLDHHVDVSASDVEELQRSIDTGVCMTLLLSVVVVVFGLSEFVKFGRRRILG | soluble
MSLADAPDNLLGAYLRDRREKLDPAALGLPSTRRRTPGLRREEVAQRAHVSTAWYTWMEQGRGGAPSADVLDRLARALLLDDAEREHLFLLGVGHPPEVRYHASGGVTPRLQHVLDAMDASPAIVRTATWDVVAWNAAAAATLTDYATLPPAARNILRLIFVDPRVRDAQPNWDRVARFAVGAFRADIARGGATQAVQAFIDEMRATSAEFDALWRDHDIRSHDEGTKEIRHPHAGRITLEYSAFAVIGRADLSLVIFTPTTAADRASIRSLVAAREQARAAQAPAMEGHHHHHH | soluble
MAHHHHHHMMRSSFVHKAAAAAAGGGMTATSSDHKMASLHKLLTGEVQFRNNALLKTCNIEHNFGATWKSDIEAYAKCLPADERSCLERQVARVMLTRYTTRELAEYCGEGPEHVDAVAREANIAQAKAHAQQYGADKLEAYVKAESKNAGWSEAETKSFLDAVKAAK | soluble
MLIELLISITVLASILVSCKKEKNEAAKLKPRGFDRKSSGAPAPAGANLVNKSGGSGGGSGGSGDANRLLKREIKEVKMEERSADDNETINDVKSNWGTV | not soluble
MTLCAMYNISMAGSHPTTICVVMDRFLESFSELYDIIDENDTDVMMDFISRFARTDEIMPEDKTVGFVVVNADKKLMSVSFSDIDENMKKVIKATAEKFKNKGFKVETDM | soluble
MEHLLAIALGPVQEFIATARRTRDLYAGSRLLSEAAARAAKALAREVGAKNLIFPAPEDEAGLERLAGAGIPNVLLVRVPEGKDPRGLGEQALGAARDYLRERAEEVLGPRRDLLFWREALAQVEDLLEGYYAYLPLEGDYPRARERLMALLAARKNTRDFAPVSWGSPAYKSSLDGARESVLRLPEKEADHLRVRLGLRPGEYLAGPDLLKRWWKAGHGFLSTTHMAALPFWEGVRRAGLEAVLKEALEELGGLVGEEARAEVRHPVLRDTPFGEWDVRLLYESRLEEFPSLAEDPGLLEKARDRLRALWRRLFPKVRVPPGAYYALLHADGDRMGETLDGLPSPEAHRRFSNALALGFAAQVKDIVEAHGGGLVYSGGDDVLALLPLHTALMAARALADRFREAMAPFGREGRAPSLSVGLAVVHHLEPLQDALDLARRAEKWAKEGEPKRNALCVAYSPRSGAERLVRGRWDENPPLTRRLLRYADLLRAGEVPSRAAYELLALVREAGEALSGEALVAEALRILGRKEMKRAYREELEAWLRTGEDVRRLAEELILARPFAEALDQAGVPVESREVWDAH | soluble
MARVAIPSVGKDLSSMVSDRFARAEYFIIYDTESGNVEVVENTIADAHGTGPKVVQSLVSKGVEYLIASNVGRNAFETLKAAGVKVYRFEGGTVQEAIDAFSEGRLEELTTFTREG | soluble
MGHHHHHHSHMQHPQTHRQLKETLYETIIGYFDKGKMWEEAISLCKELAEQYEMEIFDYELLSQNLIQQAKFYESIMKILRPKPDYFAVGYYGQGFPSFLRNKVFIYRGKEYERREDFQMQLMTQFPNAEKMNTTSAPGDDVKNAPGQYIQCFTVQPVLDEHPRFKNKPVPDQIINFYKSNYVQRFHYSRPVRRGTVDPENEFASMWIERTSFVTAYKLPGILRWFEVVHMSQTTISPLENAIETMSTANEKILMMINQYQSDETLPINPLSMLLNGIVDPAVMGGFAKYEKAFFTEEYVRDHPEDQDKLTHLKDLIAWQIPFLGAGIKIHEKRVSDNLRPFHDRMEECFKNLKMKVEKEYGVREMPDFDD | soluble
MGSDKIHHHHHHMHFDAETVTHRGGLSKLRSLTKVNPRLAPNLAKTMLGGPRDHAVVEAFNAHAADKGFEFTSTWASNNIPFVTPLLRDFAAKRPAGEAIRYMEIGAYEGRNLAFMDWLLPDRLAVTVIDPWFDEALNPEEKYHAVEPRFRRNMDKCGFKSLSTHKGFSTYVLPQMLERGEQFDLIYVDGSHTALAVLIDLCFCASLLSVGGMMVLDDYWHDISEIGGPGVKQAVDQFHAAFGRYFEIAAVYRQVALVKTSEIPR | not soluble
MSFTQLMRVSMKIAFIGEAVSGFGGMETVIRDVITTFRQQHIQSEMFFFCRNDKMDKGWLEGIKYSCSFSNIRLGFLRRAKHIHALSKWLQEYQPDIVICIDVISCLFAAKARKKSGIDMPVFSWPHFSLDHKKHAEYITCADYHLAISSGIKQQMINRGVAESTINVIFNPVETKDSVIPAPEEGETATFIYVGRMKFEGQKRVKDLLDGLSQAKGNWKLHVLGDGSDFEKCQAYGRELNIDDRIVWYGWQQYPWELVQQDIEKVSALLLTSSFEGFPMTLLEALSWGIPCISADCVSGPADIIQPDVNGHLYQPGDIAGFVTLLNKYIAGEIHIEHEKIPASIDEFYQSKYYDRLHKVIISAISRRK | not soluble
MSLMSSRVTIFTSCNDAYIYLLREGNSQAFPNAVGSKMVNLNTIPPKNGRDYYIALGLEGSANKLGVGIVKHPLLPKHANSDLSYDCEAEMLSNIRDTYVTPPGEGFLPRDTARHHRNWCIRLIKQALAEADIKSPTLDIDVICFTKGPGMGAPLHSVVIAARTCSLLWDVPLVGVNHCIGHIEMGREITKAQNPVVLYVSGGNTQVIAYSEKRYRIFGETLDIAIGNCLDRFARTLKIPNEPSPGYNIEQLAKKAPHKENLVELPYTVKGMDLSMSGILASIDLLAKDLFKGNKKNKILFDKTTGEQKVTVEDLCYSLQENLFAMLVEITERAMAHVNSNQVLIVGGVGCNVRLQEMMAQMCKDRANGQVHATDNRFCIDNGVMIAQAGLLEYRMGGIVKDFSETVVTQKFRTDEVYAAWRDEGHHHHHH | not soluble
